Data as given in patent publication US20220251236A1 (Boehringer Ingelheim, published 2022).

Legend:
Human CD3 E+G HuFc-6xHis [1] = molecular target: T1, Human CD3 E+G HuFc-6xHis (human); test: SPR (ProteOn XPR36), CD3εγ-Fc amine-coupled, bispecific as analyte, equilibrium fit, Example 4A
T1 construct: also called hu CD3εγ-Fc
Description: (§1) The binding affinity of purified DLL3/CD3 bispecific constructs for recombinant human and cyno DLL3-ECD and Fc-fusion proteins of human and cyno CD3 εγ subunits was determined by Surface Plasmon Resonance (SPR), using a ProteOn XPR36 instrument (Bio-Rad). The running buffer and all dilutions (except where stated) were done in PBS-T-EDTA. The GLM sensor chip (Bio-Rad) was normalized and pre-conditioned as per the manufacturer's recommendations. The sensor chip was activated with equal mixture of EDC/s-NHS in the horizontal direction for 300 sec at a flow rate of 30 ul/min and immobilized with protein A/G (20 ug/ml in 10 mM acetate pH 4.5) in the horizontal direction for 300 sec at a flowrate of 30 ul/min resulting in ˜5000 RU of protein A/G on the surface. The sensor chip was deactivated with 1M ethanolamine HCl in the horizontal direction for 300 sec at a flowrate of 30 μl/min.
For binding kinetic determination to CD3, hu CD3εγ-Fc and cy CD3εγ-Fc (dissolved in pH 4.5 acetate) was immobilized directly onto the sensor surface through amine coupling for 140 sec at a flowrate of 30 μl/min vertically. The baseline was stabilized by injecting PBS-T-EDTA for 60 sec at a flowrate of 40 μl/min horizontally. The analyte (the bispecific molecule) was injected horizontally over the captured CD3εγ-Fc construct for 600 sec at a flowrate of 40 μl/min and a dissociation for 600 sec.
(§2) The inter spot (interactions with sensor surface) and blank (PBS-T-EDTA) were subtracted from the raw data.

Human CD3 E+G HuFc-6xHis [2] = molecular target: T1, Human CD3 E+G HuFc-6xHis; test: SPR (ProteOn XPR36), HuCD3E_HuCD3G-Fc amine-coupled, bispecific as analyte, Example 4B
Outline: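 Human CD3ε/γ-Fc fusion is amine-coupled to the chip at pH 4.5. Anti-DLL3/CD3 bispecifics are injected as analyte in PBS-T-EDTA at 30 μl/min, with 600 s association and 1800 s dissociation. Binding kinetics are measured by SPR.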

[3] = molecular target: T2, trypsin inhibitor from glycine max soybean (Glycine max (soybean)); test: SPR (Biacore T200), trypsin inhibitor on CM5 chip, sample at 1 µM
T2 construct: also called Tryp
T2 sequence (P01070 25-205): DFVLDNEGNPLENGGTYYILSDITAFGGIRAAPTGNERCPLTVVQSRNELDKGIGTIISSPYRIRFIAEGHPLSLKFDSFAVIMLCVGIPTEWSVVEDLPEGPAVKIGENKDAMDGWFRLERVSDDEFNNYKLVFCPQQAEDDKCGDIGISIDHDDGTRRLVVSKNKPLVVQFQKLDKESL
Source text: To prepare the surface for the non-specific binding experiment, chicken egg white lysozyme and trypsin inhibitor from glycine max soybean were coupled manually to a series S CM5 chip with the surface density of 3000-5000 RU using the amine coupling kit according to the manufacture instructions.

Cyno DLL3-His [4] = molecular target: T3, Cyno DLL3-His (cynomolgus monkey, UniProt Q9NYJ7 27-492 (human entry)); test: SPR (ProteOn XPR36), bispecific captured on protein A/G, DLL3 as analyte, Example 4A
T3 construct: also called cy DLL3; recombinant cyno DLL3-ECD
T3 chain: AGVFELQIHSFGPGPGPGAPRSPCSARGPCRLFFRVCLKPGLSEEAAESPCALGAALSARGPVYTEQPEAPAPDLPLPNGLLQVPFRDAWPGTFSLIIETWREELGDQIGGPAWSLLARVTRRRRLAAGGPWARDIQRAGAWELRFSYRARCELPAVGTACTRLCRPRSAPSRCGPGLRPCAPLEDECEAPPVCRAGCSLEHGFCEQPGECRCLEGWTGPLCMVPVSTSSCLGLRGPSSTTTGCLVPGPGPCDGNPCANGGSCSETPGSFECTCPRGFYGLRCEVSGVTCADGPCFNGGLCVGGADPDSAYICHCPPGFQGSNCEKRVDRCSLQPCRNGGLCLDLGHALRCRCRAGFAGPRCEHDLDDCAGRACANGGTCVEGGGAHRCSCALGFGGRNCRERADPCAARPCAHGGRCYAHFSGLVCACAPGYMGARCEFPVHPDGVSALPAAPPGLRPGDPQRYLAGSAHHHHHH
Description: as §1
(§3) For binding kinetic determination to DLL3, bispecific molecules were captured individually on the protein A/G surface vertically for 250 sec at a flowrate of 25 μl/min. The baseline was stabilized by injecting PBS-T-EDTA for 60 sec at a flowrate of 40 μl/min horizontally. The analyte (hu DLL3 or cy DLL3) was injected horizontally over the captured antibody for 600 sec at a flowrate of 40 μl/min and a dissociation for 2700 sec.
as §2

Human DLL3-His [5] = molecular target: T4, Human DLL3-His (human, UniProt Q9NYJ7 27-492); test: as above
T4 construct: also called huDLL3-His; hu DLL3
T4 sequence: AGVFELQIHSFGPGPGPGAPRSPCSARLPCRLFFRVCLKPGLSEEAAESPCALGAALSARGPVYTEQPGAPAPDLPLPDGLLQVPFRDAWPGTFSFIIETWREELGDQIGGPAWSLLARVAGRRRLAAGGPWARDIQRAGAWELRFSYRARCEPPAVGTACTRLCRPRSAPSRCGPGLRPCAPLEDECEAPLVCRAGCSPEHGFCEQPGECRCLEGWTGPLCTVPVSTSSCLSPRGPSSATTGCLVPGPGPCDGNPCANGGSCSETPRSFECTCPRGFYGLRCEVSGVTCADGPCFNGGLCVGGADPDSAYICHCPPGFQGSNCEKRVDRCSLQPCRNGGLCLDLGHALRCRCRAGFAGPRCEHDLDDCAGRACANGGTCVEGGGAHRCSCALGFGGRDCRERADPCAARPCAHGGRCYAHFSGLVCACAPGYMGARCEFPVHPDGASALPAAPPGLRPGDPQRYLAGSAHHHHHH
Description: as §1, §3, §2

Human DLL3-His [6] = molecular target: T4, Human DLL3-His; test: SPR (ProteOn XPR36), bispecific captured on protein A/G, hu DLL3 as analyte, Example 4B
Outline: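 Bispecific constructs captured on protein A/G for 200 s at 30 μl/min, baseline stabilized with PBS-T-EDTA. Human DLL3 analyte injected 300 s at 30 μl/min; dissociation followed for 1800 s.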

Cyno DLL3-His [7] = molecular target: T3, Cyno DLL3-His; test: SPR; ratio of the KD values for human and cyno DLL3
Description: as §1, §3, §2

T1 sequence (chain, as listed by the source limits assumed): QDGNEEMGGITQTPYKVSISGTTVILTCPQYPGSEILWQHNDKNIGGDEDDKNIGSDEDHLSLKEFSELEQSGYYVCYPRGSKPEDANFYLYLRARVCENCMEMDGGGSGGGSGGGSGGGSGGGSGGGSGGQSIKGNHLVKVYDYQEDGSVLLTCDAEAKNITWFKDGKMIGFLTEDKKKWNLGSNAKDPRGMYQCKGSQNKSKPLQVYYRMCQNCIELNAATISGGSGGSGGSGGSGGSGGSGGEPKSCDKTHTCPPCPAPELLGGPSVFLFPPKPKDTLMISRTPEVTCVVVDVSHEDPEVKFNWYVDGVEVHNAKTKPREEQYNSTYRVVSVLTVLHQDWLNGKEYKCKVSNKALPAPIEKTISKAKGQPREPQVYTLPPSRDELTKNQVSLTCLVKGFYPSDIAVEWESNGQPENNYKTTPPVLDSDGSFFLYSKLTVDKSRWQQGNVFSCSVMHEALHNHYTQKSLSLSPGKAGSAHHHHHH

B1: DLL3#3/CD3#3 (bispecific antibody, human IgG1, kappa, lambda, L234A L235A)
chain 1: DIQMTQSPSAMSASVGDRVTITCRASQGISNYLVWFQQKPGKAPKRLIYAVSSLYSGVPSRFSGSGSGTEFTLTISSLQPEDFATYYCLQHDSYPYTFGQGTKLEIKRTVAAPSVFIFPPSDEQLKSGTASVVCLLNNFYPREAKVQWKVDNALQSGNSQESVTEQDSKDSTYSLSSTLTLSKADYEKHKVYACEVTHQGLSSPVTKSFNRGECGGGGSEGKSSGSGSESKSTEGKSSGSGSESKSTGGGGSQVQLVQSGAEVKKPGASVKVSCKASGYTFTSYYVHWVRQAPGQGLEWMVIINPGGGTTSYAQKFLGRVTMTRDTSTNTVYMELKSLRSEDTAVYYCARGEAVTGNYFYYGMDVWGQGTTVTVSSASTKGPSVFPLAPSSKSTSGGTAALGCLVKDYFPEPVTVSWNSGALTSGVHTFPAVLQSSGLYSLSSVVTVPSSSLGTQTYICNVNHKPSNTKVDKRVEPKSCDKTHTCPPCPAPEAAGGPSVFLFPPKPKDTLMISRTPEVTCVVVDVSHEDPEVKFNWYVDGVEVHNAKTKPREEQYNSTYRVVSVLTVLHQDWLNGKEYKCKVSNKALPAPIEKTISKAKGQPREPQVYTLPPSREEMTKNQVSLWCLVKGFYPSDIAVEWESNGQPENNYKTTPPVLDSDGSFFLYSKLTVDKSRWQQGNVFSCSVMHEALHNHYTQKSLSLSPG
chain 2: EAVVTQEPSLTVSPGGTVTLTCRSSTGAVTTSNYANWVQEKPGQLPRGLIGGTNKRAPWVPARFSGSLLGGKAALTLSGAQPEDEAEYFCALWYSNLWVFGGGTKLTVLGQPKAAPSVTLFPPSSEELQANKATLVCLISDFYPGAVKVAWKADGSPVNTGVETTTPSKQSNNKYAASSYLSLTPEQWKSHRSYSCQVTHEGSTVEKTVAPAECSGGGGSEGKSSGSGSESKSTEGKSSGSGSESKSTGGGGSEVQLVESGGGLVQPGGSLKLSCAASGFTFNTYAMNWVRQAPGKGLEWVARIRSKYANYATYYADSVKDRFTISRDDSKNTAYLQMNNLKTEDTAVYYCVRHGNFGNSYVSWFAYWGQGTLVTVSAASTKGPSVFPLAPSSKSTSGGTAALGCLVKDYFPEPVTVSWNSGALTSGVHTFPAVLQSSGLYSLSSVVTVPSSSLGTQTYICNVNHKPSNTKVDKRVEPKSCDKTHTCPPCPAPEAAGGPSVFLFPPKPKDTLMISRTPEVTCVVVDVSHEDPEVKFNWYVDGVEVHNAKTKPREEQYNSTYRVVSVLTVLHQDWLNGKEYKCKVSNKALPAPIEKTISKAKGQPREPQVYTLPPSREEMTKNQVSLSCAVKGFYPSDIAVEWESNGQPENNYKTTPPVLDSDGSFFLVSKLTVDKSRWQQGNVFSCSVMHEALHNRFTQKSLSLSPG
notes: Heterodimer of one DLL3 chain and one CD3 chain (scFab-Fc, knob-in-hole)
In the case of B1, the Kd (Human CD3 E+G HuFc-6xHis [1]) is reported as 68 nM, the Kd (Human CD3 E+G HuFc-6xHis [2]) is reported as 4 nM and the “Non-specific binding (RU)” value [3] is reported as 28 RU. It also gave a Kd (Cyno DLL3-His [4]) of under 0.01 nM, a Kd (Human DLL3-His [5]) of under 0.01 nM and a Kd (Human DLL3-His [6]) of 0.116 nM. For the same binder, the “Affinity gap KD hu/cyno DLL3” value (Cyno DLL3-His [7]) was 1.
